The chains are these.
T1: K89D
T1 construct: also called human CI-M6PR Dom1-3His6 K89D
T1 chain: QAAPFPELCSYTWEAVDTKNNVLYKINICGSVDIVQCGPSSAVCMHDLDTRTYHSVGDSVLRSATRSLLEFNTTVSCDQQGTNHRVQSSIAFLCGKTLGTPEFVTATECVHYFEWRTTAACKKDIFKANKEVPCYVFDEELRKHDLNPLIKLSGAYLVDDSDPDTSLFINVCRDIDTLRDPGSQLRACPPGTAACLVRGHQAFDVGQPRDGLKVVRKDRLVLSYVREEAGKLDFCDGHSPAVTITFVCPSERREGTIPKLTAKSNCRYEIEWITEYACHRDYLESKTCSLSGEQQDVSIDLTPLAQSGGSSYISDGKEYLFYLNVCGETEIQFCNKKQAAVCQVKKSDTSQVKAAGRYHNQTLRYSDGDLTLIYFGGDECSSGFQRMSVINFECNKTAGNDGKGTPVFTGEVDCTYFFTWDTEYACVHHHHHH

T2: L197D
T2 construct: also called human CI-M6PR Dom1-3His6 L197D
T2 chain: T1 chain with D49K, L157D

T3: D409F
T3 construct: also called human CI-M6PR Dom1-3His6 D409F
T3 chain: T1 chain with D49K, D369F

T4: E433R
T4 construct: also called human CI-M6PR Dom1-3His6 E433R
T4 chain: T1 chain with D49K, E393R

B1: anti-CI-M6PR VHH5 (VHH)
VHH: QVQLQESGGGLVQAGGSLKLSCAAAGRTFSRLAMGWFRQAPGKEREFVAAISENGDSIHYSDSVKGRFAVSRDNAKNTVYLQMNSLKPEDTAIYYCAADRAAYYCSGSGCYPSRAPAAASYDYWGQGTQVTVSS
notes: His6-tagged; made in Pichia pastoris, later also in E. coli WK6
B2: anti-CI-M6PR VHH8 (VHH)
VHH: QVQLQESGGGLVQAGGSLRLSCEASGRTFNTYNWGWFRQAPGKEREFVAAIRWSSSKTSYADSVKGRFTISRDNAKNTIYLQMNSLKPEDTAVYYCAASIVDFTTNPSHFGSWGQGTQVTVSS
notes: His6-tagged (Pichia pastoris)
B3: anti-CI-M6PR VHH 1H11 (VHH)
VHH: QVQLQESGGGLVQPGGSLRLSCAASGIIFSDNRMDWYRQAPGKQREWVATLASYGWKTYADSVKDRFTISRDNAKNTVNLYMNSLQPEDTAVYYCNSGQYWGQGTQVTVSS
notes: made in E. coli WK6, His-tag purified
B4: anti-CI-M6PR VHH7 (VHH)
VHH: QVQLQESGGGLVQPGGSLRLSCAASGIIFSDNRMDWYRQAPGKQREWVATLASYGWKTYADSVKGRFTISRDNTKNTVYLRMNSLKPEDTAVYYCKASSPVLNDIWGQGTQVTVSS
notes: His6-tagged (Pichia pastoris)
B5: anti-CI-M6PR VHH1 (VHH)
VHH: QVQLQESGGGLVQPGGSLRLSCVASGFTFDRYWMNWLRQIPGKEIEWVSTINTGGTGTYYDDSVKGRFSISRDDAKNTLYLTMNSLKTEDTAVYYCARGATYYRGNSAIRGQGTQVTVSS
notes: as for B1

Where a chain is given by its changes, count along the chain named.

One test deals with T1, K89D. The test is described as follows: ELISA on coated antigen (100 ng), anti-VHH-HRP, A450. The protocol:
(§1) To determine the effect of site-directed mutations, an ELISA was performed. To this end, 100 ng of each successfully purified mutant was coated per well on Nunc Maxisorp plates in 50 mM MES, 150 mM NaCl, pH 6.5 buffer overnight at 4° C. […] Coating-only controls were included for background correction. […] Reactions were stopped after five minutes using a 2N H₂SO₄ solution and plates were read at 450 nm, with a 655 nm background correction. Data were analyzed using the GraphPad Prism 9 software.
(In general: ELISA stands for enzyme-linked immunosorbent assay.)
Consider B1, for which the EC50 (read off the curve) – broadly, the concentration at which the effect is half-maximal – was about 2 nM.

As to B2, the “EC50 (read off the curve)” value is about 3 nM.

As for B3, the “EC50 (read off the curve)” value was about 0.7 nM.

In another test the target is T5, recombinant human domain 1-3His6 of the cation-independent mannose-6-phosphate receptor (human, UniProt P11717 41-467).
T5 construct: Biotinylated (NHS-PEG4-biotin) for BLI; Glycosylated; also called hDom1-3His6; hCI-M6PRD1-D3
Described as above. How it is done:
as §1
As to B4, the “EC50 (read off the curve)” value was about 0.3 nM.

With B1, the half-maximal effective concentration (EC50 (read off the curve)) is about 2 nM.

Take B2: the “EC50 (read off the curve)” value is about 3 nM.

As for B5, the “EC50 (read off the curve)” value is about 10 nM.

Turning to B3, the “EC50 (read off the curve)” value is about 0.4 nM.

For another test, the target named is T2, L197D. Described as above. How it is done: as §1
Regarding B1, the “EC50 (read off the curve)” value is about 4 nM.

For B2, the “EC50 (read off the curve)” value was about 20 nM.

Consider B3, for which the “EC50 (read off the curve)” value is about 0.4 nM.

Another test deals with T3, D409F. Described as above. The protocol:
as §1
Turning to B1, the “EC50 (read off the curve)” value is about 4 nM.

Take B2: the “EC50 (read off the curve)” value was about 5 nM.

B3: the “EC50 (read off the curve)” value was about 0.4 nM.

Another test has as its target T4, E433R. Described as above. How it is done:
as §1
Regarding B1, the “EC50 (read off the curve)” value is about 3 nM.

Turning to B2, the concentration giving a half-maximal response (EC50 (read off the curve)) was about 3 nM.

As to B3, the “EC50 (read off the curve)” value was about 0.4 nM.

The target in a further test is T5, recombinant human domain 1-3His6 of the …. The description is as above. The source holds these as a separate data set. The protocol:
as §1
For the molecule B4, the “EC50 (read off the curve)” value was about 0.3 nM.

Take B1: the half-maximal effective concentration (EC50 (read off the curve)) is about 2 nM.

On to B2, for which the “EC50 (read off the curve)” value is about 3 nM.

On to B5, for which the “EC50 (read off the curve)” value was about 10 nM.

For the molecule B3, the “EC50 (read off the curve)” value is about 0.4 nM.

The target is the same in a further test. The experiment in a line: ELISA on coated human CI-M6PRD1-D3, non-linear fit of the curves of FIG 36A. The protocol: FIGS. 36A-C. […] (FIG. 36A) ELISA assay in which each construct was serially diluted and incubated on human CI-M6PR_D1-D3 and the detected absorbance (Abs) at 450 nm was set out in function of concentration. […] Graphs created in Graphpad Prism 9.0.0.
B4: the 50% effective concentration (EC50) (in general, the concentration needed to bring the measured effect to its halfway point) was 0.45 nM.

Regarding B1, the EC50 came to 65 nM.

With B2, the concentration for a half-maximal effect (EC50) amounted to 0.16 nM.

As to B5, the EC50 came out at 19 nM.

These data come from patent US20250263490A1 (VIB VZW, published 2025).
